Reference: patent US20160115199A1 (AADIGEN, published 2016)
Where no end group is shown, it is not given here.

B1: C4 peptide (KKQVRMAHLVLT) (peptide)
peptide: KKQVRMAHLVLT
modifications: also: FITC or Cy5 label, position not given here
B2: PC4 cyclic peptide (RWTEWEWW) (peptide)
peptide: RWTEWEWW
modifications: also: cyclic, mode of cyclisation not given here

What was measured:
cdk2/cyclin A complex = cdk2/cyclin A complex (UniProt P24941 1-298; P20248 1-432); experiment: cell-based or functional assay
HIV integrase = HIV integrase (HIV-1, UniProt P03367 1160-1447); experiment: cell-based or functional assay

| Binder | IC50 of cell proliferation, Hela cells, C4 delivered by VEPEP-4 (cdk2/cyclin A complex) | IC50 of cell proliferation, MCF7 cells, C4 delivered by VEPEP-4 (cdk2/cyclin A complex) | IC50 of viral replication (RT activity) on PBMC infected by HIV-1 LAI, PC4D delivered by Short 4 (HIV integrase) | IC50 of viral replication (RT activity) on PBMC infected by HIV-1 LAI, PC4D delivered by VEPEP-3i (HIV integrase) | IC50 of viral replication (RT activity) on PBMC infected by HIV-1 LAI, PC4D delivered by VEPEP-3j (HIV integrase) |
| --- | --- | --- | --- | --- | --- |
| B1 | 50 nM | 60 nM | – | – | – |
| B2 | – | – | 0.37 nM | 0.24 nM | 0.17 nM |
